The target of series [1] is T1, MLDSR (GST-MLDSR) (Rhodococcus jostii RHA1, UniProt A0A1H4Y2R3 2-168).
T1 sequence: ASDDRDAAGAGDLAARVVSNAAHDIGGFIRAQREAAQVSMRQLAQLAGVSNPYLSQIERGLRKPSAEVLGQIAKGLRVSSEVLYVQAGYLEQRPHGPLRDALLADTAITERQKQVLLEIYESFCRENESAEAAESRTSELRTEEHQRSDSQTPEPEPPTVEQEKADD
The experiment in a line: EMSA; EMSA: 20 mM Tris-HCl pH 7.5, 150 mM NaCl, 5 mM MgCl2, 1 mM EDTA, 1 mM DTT, 4% glycerol, 24 C or room temperature, 30-40 min; SPR: 20 mM Tris-HCl pH 7.5, 150 mM. The conditions noted are these: protein: recombinant; tags: N-terminal GST; blunt. For orientation: In EMSA bound probe runs differently from free probe, usually more slowly.

Series [2] deals with T1, MLDSR (GST-MLDSR). The experiment in a line: SPR; EMSA: 20 mM Tris-HCl pH 7.5, 150 mM NaCl, 5 mM MgCl2, 1 mM EDTA, 1 mM DTT, 4% glycerol, 24 C or room temperature, 30-40 min; SPR: 20 mM Tris-HCl pH 7.5, 150 mM. The conditions noted are these: protein: recombinant; tags: N-terminal GST; label: 5'-biotin on strand 1; blunt. On the technique in general: Surface plasmon resonance follows binding to a sensor surface in real time, without labels.

Series [3] concerns the target T1, MLDSR (GST-MLDSR). The experiment in a line: SPR; 1:1 model though DNA holds two sites; EMSA: 20 mM Tris-HCl pH 7.5, 150 mM NaCl, 5 mM MgCl2, 1 mM EDTA, 1 mM DTT, 4% glycerol, 24 C or room temperature, 30-40 min; SPR: 20 mM Tris-HCl pH 7.5, 150 mM. The conditions noted are these: protein: recombinant; tags: N-terminal GST; label: 5'-biotin on strand 1; blunt.
Series [4] concerns the target T1, MLDSR (GST-MLDSR). The experiment in a line: EMSA; rough estimate by authors from Fig. 5b; EMSA: 20 mM Tris-HCl pH 7.5, 150 mM NaCl, 5 mM MgCl2, 1 mM EDTA, 1 mM DTT, 4% glycerol, 24 C or room temperature, 30-40 min; SPR: 20 mM Tris-HCl pH 7.5, 150 mM. The conditions noted are these: protein: recombinant; tags: N-terminal GST; blunt.

B1: 103 bp (dsDNA)
DNA 1: CAATCGCCTCGACGGAGGGTCCGCTAGCTGGGTGCTAACAGAGTGCTTGCAATTGCTAGCACCCTGCTTTAGCCTTGGTTCTGCCCAGCAACACGGAGGACTG
DNA 2: CAGTCCTCCGTGTTGCTGGGCAGAACCAAGGCTAAAGCAGGGTGCTAGCAATTGCAAGCACTCTGTTAGCACCCAGCTAGCGGACCCTCCGTCGAGGCGATTG
Consider B1, for which the binding result in the series with MLDSR (GST-MLDSR) [1] is recorded as “binds”.

B2: biotin-motif 2 (23 bp) (dsDNA)
DNA 1: TCCGCTAGCTGGGTGCTAACAGA
DNA 2: TCTGTTAGCACCCAGCTAGCGGA
With B2, the dissociation constant (Kd) (in general, the concentration at which binding is half-saturated) in the series with MLDSR (GST-MLDSR) [2] was determined as 5140 nM.

B3: biotin-43 bp (motif 1+2) (dsDNA)
DNA 1: TCCGCTAGCTGGGTGCTAACAGAGTGCTTGCAATTGCTAGCAC
DNA 2: GTGCTAGCAATTGCAAGCACTCTGTTAGCACCCAGCTAGCGGA
Take B3: the Kd in the series with MLDSR (GST-MLDSR) [3] turned out to be 62 nM.

B4: 43 bp (motif 1+2) (dsDNA)
DNA 1: B3 DNA 1
DNA 2: B3 DNA 2
For the molecule B4, in the series with MLDSR (GST-MLDSR) [4], the Kd was approximately 442 nM.

B5: biotin-motif 1 (20 bp) (dsDNA)
DNA 1: GTGCTTGCAATTGCTAGCAC
DNA 2: GTGCTAGCAATTGCAAGCAC
Consider B5, for which, in the series with MLDSR (GST-MLDSR) [2], the Kd turned out to be 175 nM.

(Values after article PMC5504291, “Bacterial lipid droplets bind to DNA via an intermediary protein that enhances survival under stress”.)
